According to IntAct's records for PubMed 19898420:

B1: Abscisic acid receptor PYL2 (Arabidopsis thaliana (Mouse-ear cress)), O80992 (parent)
chain: MSSSPAVKGLTDEEQKTLEPVIKTYHQFEPDPTTCTSLITQRIHAPASVVWPLIRRFDNPERYKHFVKRCRLISGDGDVGSVREVTVISGLPASTSTERLEFVDDDHRVLSFRVVGGEHRLKNYKSVTSVNEFLNQDSGKVYTVVLESYTVDIPEGNTEEDTKMFVDTVVKLNLQKLGVAATSAPMHDDE
B2: Abscisic acid receptor PYR1 (Arabidopsis thaliana (Mouse-ear cress)), O49686 (parent)
chain: MPSELTPEERSELKNSIAEFHTYQLDPGSCSSLHAQRIHAPPELVWSIVRRFDKPQTYKHFIKSCSVEQNFEMRVGCTRDVIVISGLPANTSTERLDILDDERRVTGFSIIGGEHRLTNYKSVTTVHRFEKENRIWTVVLESYVVDMPEGNSEDDTRMFADTVVKLNLQKLATVAEAMARNSGDGSGSQVT

Variants of: B1
Conditions: with HAB1, Q9CAJ0

Variant | effect of a mutation on the interaction
MSSSPAVKGLTDEEQKTLEPVIKTYHQFEPDPTTCTSLITQRIHAPASVVWPLIRRFDNPERYKHFVKRCRLISGDGDVGSVREVTVISGLPASTSTERLEFVDDDHRVLSFRVVGGEARLKNYKSVTSVNEFLNQDSGKVYTVVLESYTVDIPEGNTEEDTKMFVDTVVKLNLQKLGVAATSAPMHDDE [H119A] | decreasing interaction
MSSSPAVKGLTDEEQKTLEPVIKTYHQFEPDPTTCTSLITQRIHAPASVVWPLIRRFDNPERYKHFVKRCRLISGDGDVGSVREVTVISGLPASTSTERLEFVDDDHRVLSFRVVGGEHALKNYKSVTSVNEFLNQDSGKVYTVVLESYTVDIPEGNTEEDTKMFVDTVVKLNLQKLGVAATSAPMHDDE [R120A] | decreasing interaction

Variants of: B2
Conditions: with HAB1, Q9CAJ0

Variant | effect of a mutation on the interaction
MPSELTPEERSELKNSIAEFHTYQLDPGSCSSLHAQRIHAPPELVWSIVRRFDKPQTYKHFIKSCSVEQNFEMRVGCTRDVIVISGLPANTSTERLDILDDERRVTGFSIIGGEARLTNYKSVTTVHRFEKENRIWTVVLESYVVDMPEGNSEDDTRMFADTVVKLNLQKLATVAEAMARNSGDGSGSQVT [H115A] | disrupting interaction
